In patent publication US20240117454:

Tests used:
[1] = molecular target: bovine Achilles tendon-derived collagen (SIGMA, C9879)
[2] = molecular target: T1, Bovine neck ligament-derived elastin (SIGMA, E1625), P04985
T1 chain: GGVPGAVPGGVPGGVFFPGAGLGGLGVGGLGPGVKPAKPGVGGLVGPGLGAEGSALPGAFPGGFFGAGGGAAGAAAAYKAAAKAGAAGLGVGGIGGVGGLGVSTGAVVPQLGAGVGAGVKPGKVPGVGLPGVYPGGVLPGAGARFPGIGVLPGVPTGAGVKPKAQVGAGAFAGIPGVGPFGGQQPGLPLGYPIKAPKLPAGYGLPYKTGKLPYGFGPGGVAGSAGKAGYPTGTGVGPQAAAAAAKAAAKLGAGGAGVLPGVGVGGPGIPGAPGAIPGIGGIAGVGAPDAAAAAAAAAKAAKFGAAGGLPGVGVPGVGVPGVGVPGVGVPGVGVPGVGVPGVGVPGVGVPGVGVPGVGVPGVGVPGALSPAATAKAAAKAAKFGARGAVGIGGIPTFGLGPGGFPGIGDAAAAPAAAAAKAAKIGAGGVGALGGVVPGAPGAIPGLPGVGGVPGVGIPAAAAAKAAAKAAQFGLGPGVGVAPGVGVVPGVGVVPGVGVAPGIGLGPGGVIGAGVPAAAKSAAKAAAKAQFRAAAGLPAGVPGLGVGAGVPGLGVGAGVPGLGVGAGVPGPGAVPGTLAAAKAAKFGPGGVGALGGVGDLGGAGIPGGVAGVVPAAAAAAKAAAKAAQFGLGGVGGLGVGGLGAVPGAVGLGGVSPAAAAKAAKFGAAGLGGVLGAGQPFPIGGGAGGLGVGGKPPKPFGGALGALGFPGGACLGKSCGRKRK

B1: beta-lytic metallopeptidase (BLP) (protein)
chain: SAQGHGLSGEDLVYSYDEMFDFDIDAYLAKHAPHLHKHSEEISHWAGYSGISPKVLIALMEQQSGAVSAKRATNRPFGKLARADGFGAQTREVALALRESLYERDPDGAKGPVTLARANPLQALFERSGDNEPAAALRGDGEFQLVYGRLFNEPRQAKAASDRFAKAGPDVQPLSPNGL
For B1, the “collagen degrading activity (amount of peptides liberated, relative value to savinase)” value [1] was “had significantly lower collagen degrading activity as compared to savinase” and the “elastin degrading activity (amount of peptides liberated, relative value to savinase)” value [2] was “BLP was equivalent in elastin degrading activity to savinase”.

B2: BLP homologue derived from Lysobacter gummosus (LgBLP) (protein)
chain: AERGLSGQDLVYSYDEMFDFDIDAYLAKNAPHLSRHAESISHWAGYSGISPKVLIALMEQQSGAITRKHAAADAAKRPFGALAKAKDFNGQTREVAQALREALYENDGPDAKGAVTVARANPLQALFERAGASQASAKLSGDGEFQLVYGRLFNEPRQAQAPSARFAKAGPDVQPLSP
B2 was tested, and the “elastin degrading activity (amount of peptides liberated, relative value to savinase)” value [2] was “LgBLP had lower elastin degrading activity as compared to savinase”.
